Results on 72 sequences are retold here after the supplement of paper PMC10567573.

The series is described as follows: protein stability index of a GFP-peptide fusion (GPS, HEK-293T) (PSI 1-6); higher = more stable.
The mark [1] stands for this setting: treatment: DMSO, c terminus: a fixed tail appended.
[2] abbreviates: treatment: MLN4924 1 uM, 8 h, c terminus: a fixed tail appended.

± gives the standard deviation.
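Further: 24-mer peptide tiles fused after GFP, lentivirally expressed, FACS-sorted into six equal bins by GFP/DsRed ratio, decoded by Illumina sequencing, PSI is the read-weighted mean bin number.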

Take IADYLLLPLAEREHVSRALCIHTG [TRIB1]: the protein stability index is, setting by setting: under setting [1], 2.23 ± 0.47; under setting [2], 2.02 ± 0.33.

Turning to IANPNSLHHVKTMWYPEIKHFCPR [RHOBTB2], the protein stability index is, setting by setting: under setting [1], 2.36 ± 0.25; under setting [2], 2.64 ± 0.2.

As to ICSSLQNLEKTIFCLQKLISLHPF [C8orf76], the protein stability index by setting is: under setting [1], 3.28 ± 1; under setting [2], 2.65 ± 0.39.

For IDFLRVVRNQQSLAVSNMGARSKG [PTPN9], the protein stability index was found to be 2.76 ± 0.17 under setting [1] and 3.46 ± 0.098 under setting [2].

As to IEDSTGLNRPGPAPLSSRKHVLYV [TCF25], the protein stability index reads like this: under setting [1], 2.27 ± 0.45; under setting [2], 2.35 ± 0.31.

For the sequence IEQFSESHAIHVEEQSDQSFSSLE [IQUB], the protein stability index by setting is: under setting [1], 5.1 ± 0.095; under setting [2], 5.14 ± 0.17.

For IERCIFPERIYQGSSGSYFVKDPQ [PI4K2A], the protein stability index was 3.25 ± 0.22 under setting [1] and 3.2 ± 0.35 under setting [2].

Regarding IFSFLPAPDRLRASASCSHWRECL [FBXO33], the protein stability index by setting is: under setting [1], 2.41 ± 0.28; under setting [2], 2.07 ± 0.38.

For the sequence IITRHNLTYEFLQARLRQHYQTI [CLCN6], the protein stability index by setting is: (treatment: DMSO, c terminus: native) 2.75 ± 0.49; (treatment: MLN4924 1 uM, 8 h, c terminus: native) 2.69 ± 0.46.

ILTATVDNANILLQIDNARLAADD [KRT17]: the protein stability index by setting is: under setting [1], 3.29 ± 0.075; under setting [2], 3.26 ± 0.19.

With IMDTVGNIWVCYASYVVFRIIYML [SLC19A2], the protein stability index reads like this: under setting [1], 2.83 ± 0.41; under setting [2], 3.12 ± 0.53.

In the case of IMTDLYYLSQTDGAGDWREKEAKD [FUT8], the protein stability index is, setting by setting: under setting [1], 3.59 ± 0.42; under setting [2], 3.69 ± 0.32.

As to INYCALNKPGCEHECVNMEESYYC [MATN2], the protein stability index was found to be 3.26 ± 0.7 under setting [1] and 3.28 ± 0.64 under setting [2].

In turn, IPLEQGSSCNGPGQTTGHPYYLRS [FAN1] displayed a protein stability index under setting [1] of 5.05 ± 0.38 and a protein stability index under setting [2] of 5 ± 0.18.

IPPMAQPGLPPVPGAPGMPPGIPP [ZNF207] yielded a protein stability index under setting [1] of 4.29 ± 0.24 and a protein stability index under setting [2] of 4.4 ± 0.35.

For the sequence IQEQKVVLEENGEKNQVQLGKLEA [SASS6], the protein stability index worked out at 5.2 ± 0.22 under setting [1] and 5.42 ± 0.3 under setting [2].

Take IQFKKHEEEGIETQYFAELLMTSG [CNOT7]: the protein stability index under setting [1] worked out at 2.82 ± 0.21 and the protein stability index under setting [2] was 2.82 ± 0.35.

Regarding IQQALTMFPGVLLPLLESCSVRPD [TCF25], the protein stability index came to 2.4 ± 0.5 under setting [1] and 3.18 ± 0.58 under setting [2].

ISEHEHFTDFNATSALFWEQHDLV [CLPTM1]: the protein stability index by setting is: under setting [1], 3.33 ± 0.27; under setting [2], 3.38 ± 0.35.

For the sequence ITHTREEQPHGRSRRREQSSSRNS [ZNF8], the protein stability index is, setting by setting: under setting [1], 5.33 ± 0.37; under setting [2], 5.41 ± 0.13.

As for ITVKNLRMAIGYLHSHRHLYPEGI [POMT2], the protein stability index reads like this: under setting [1], 3.02 ± 0.38; under setting [2], 2.88 ± 0.58.

Turning to IVYHPYRPLLQYVQDMGQEDMLLP [CCNC], the protein stability index reads like this: under setting [1], 2.25 ± 0.57; under setting [2], 1.93 ± 0.34.

Regarding IWSEVFTVEKPGGKKVAVVLMDTQ [ATL3], the protein stability index reads like this: under setting [1], 2.2 ± 0.34; under setting [2], 2.37 ± 0.39.

With IYKKYALQSAAGKDAAKQIAWIKD [PDS5B], the protein stability index is, setting by setting: under setting [1], 2.03 ± 0.3; under setting [2], 2.61 ± 0.44.

IYKLEEHEEFFPAFQAFTNDLLEI [CEP70]: the protein stability index by setting is: under setting [1], 2.43 ± 0.24; under setting [2], 2.39 ± 0.072.

IYLLRRQIRTVIQYQTVRYDILPL [CTDNEP1]: the protein stability index was determined as 2.94 ± 0.34 under setting [1] and 2.56 ± 0.51 under setting [2].

As for KAAGSVSKSTQFEYAWCLVRSKYN [FIS1], the protein stability index by setting is: under setting [1], 2.24 ± 0.57; under setting [2], 2.17 ± 0.37.

Take KAFREEMKIFREKIEDFREEMWTF [CCDC70]: the protein stability index reads like this: under setting [1], 2.35 ± 0.2; under setting [2], 2.03 ± 0.54.

Consider KAKQEKVSAQYLSEIEMAKAQRDY [FLOT1], for which the protein stability index was 4.54 ± 0.12 under setting [1] and 4.64 ± 0.18 under setting [2].

KAPYLCEATHEPAAARIRAQVPDT registered a protein stability index under setting [1] of 4.65 ± 0.4 and a protein stability index under setting [2] of 4.2 ± 0.68.

Turning to KEDALLYQSKGYNDDYYEESYFTT [EMD], the protein stability index reads like this: under setting [1], 4.2 ± 0.2; under setting [2], 4.21 ± 0.18.

With KELIIFRLVAPTEGSLEWDILEVK [WDR41], the protein stability index turned out to be 2.22 ± 0.24 under setting [1] and 2.21 ± 0.4 under setting [2].

KEQHLWDVDLLDSKVIEILDSQTE [DLC1]: the protein stability index under setting [1] worked out at 4.79 ± 0.26 and the protein stability index under setting [2] stood at 4.5 ± 0.18.

Turning to KEQNNLKQLEFGLKEAPVQDQGYK [ZNF8], the protein stability index by setting is: under setting [1], 5.08 ± 0.2; under setting [2], 5.25 ± 0.17.

As to KERLLLSAAVPAGQTYVDAGYEVD [CHIT1], the protein stability index by setting is: under setting [1], 4.67 ± 0.15; under setting [2], 4.67 ± 0.12.

In the case of KESMSEADRAQKMDGESEEEQESV [EHMT1], the protein stability index is, setting by setting: under setting [1], 5.71 ± 0.35; under setting [2], 5.59 ± 0.23.

As for KEVPVVHTETKTITYESSQVDPGT [EPB41L3], the protein stability index reads like this: under setting [1], 5.33 ± 0.42; under setting [2], 5.2 ± 0.25.

Turning to KFSLLNAKREETKAMESQRAYRFV [SPOPL], the protein stability index reads like this: under setting [1], 3.06 ± 0.42; under setting [2], 3.13 ± 0.23.

For the sequence KGTENLQRAQAEVLQSVRELSRSR [FCHSD1], the protein stability index by setting is: under setting [1], 4.61 ± 0.27; under setting [2], 4.41 ± 0.38.

Turning to KHGFSWAVPKFMKRIKVPDYKDRS [DLC1], the protein stability index came out at 2.56 ± 0.08 under setting [1] and 2.94 ± 0.31 under setting [2].

Regarding KIENGYPLHAPEAYFPYFKKHNVT [CDC14A], the protein stability index reads like this: under setting [1], 2.2 ± 0.19; under setting [2], 2.32 ± 0.18.

Regarding KIQDLIDDKDALVFVLIDEVESLT [TRIP13], the protein stability index under setting [1] turned out to be 2.46 ± 0.36 and the protein stability index under setting [2] is 2.36 ± 0.11.

KKDKDISKEKDTQNQNITLDCEGT [KMT2E]: the protein stability index reads like this: under setting [1], 5.23 ± 0.26; under setting [2], 5.49 ± 0.28.

Take KKIPIISNAMLVGDKLKFLSMLLT [ACSBG2]: the protein stability index is, setting by setting: under setting [1], 2.3 ± 0.79; under setting [2], 2.47 ± 0.6.

As to KKNGLYLSLVLGNVNVTLLSKQAK [TMEM120A], the protein stability index runs as follows: under setting [1], 2.51 ± 0.64; under setting [2], 2.57 ± 0.35.

In the case of KLDQLDQDIENALSTSSSPSGTPT [DLC1], the protein stability index is, setting by setting: under setting [1], 5.2 ± 0.19; under setting [2], 5.35 ± 0.27.

Turning to KLKGAEVTYMNMTAYNKGRLQSSF [PLD5], the protein stability index reads like this: under setting [1], 2.36 ± 0.22; under setting [2], 2.72 ± 0.22.

With KLNKPPETLITTIDSSSSWWTNWV [CYB5A], the protein stability index by setting is: under setting [1], 2.64 ± 0.23; under setting [2], 2.47 ± 0.35.

As for KLQVRLATKTEPKKLEKYLQKLSA [ELOA2], the protein stability index amounted to 2.31 ± 0.41 under setting [1] and 2.81 ± 0.42 under setting [2].

The sequence KLYHQSKGPGAPQYPAGTQGEQLE [SPSB2] had a protein stability index under setting [1] of 4.72 ± 0.29 and a protein stability index under setting [2] of 5 ± 0.32.

Regarding KMNDSEGMDPERLKAFNMFVRLFV [NOL4L], the protein stability index is, setting by setting: under setting [1], 2.08 ± 0.11; under setting [2], 2.23 ± 0.26.

With KMRMGGRVDFEEFVELIGPKLREE [CABP4], the protein stability index is, setting by setting: under setting [1], 3.62 ± 0.11; under setting [2], 3.31 ± 0.12.

With KQLALDHFKKTKKMGGKDFSFRYQ [ATL3], the protein stability index is, setting by setting: under setting [1], 2.86 ± 0.17; under setting [2], 3.12 ± 0.19.

As to KQLEFCFSRENLSKDLYLISQMDS [LARP4], the protein stability index under setting [1] was found to be 2.4 ± 0.2 and the protein stability index under setting [2] stood at 2.33 ± 0.28.

Take KQTGIVFGSFLLLLFSLTQFSVVS [RTN1]: the protein stability index runs as follows: under setting [1], 3.08 ± 0.46; under setting [2], 3.48 ± 0.38.

As to KRAESDSRKSSIPNNKEIPSHHPT [PTPRD], the protein stability index amounted to 5.151 ± 0.046 under setting [1] and 5.08 ± 0.078 under setting [2].

As for KRLSRFDIEMSMRGDIFERIVHLQ [NLN], the protein stability index came to 1.84 ± 0.33 under setting [1] and 2 ± 0.026 under setting [2].

The sequence KSFSMANGLNARMMHGGSYSLTTS [RAB40B] displayed a protein stability index under setting [1] of 3.1 ± 0.2 and a protein stability index under setting [2] of 3.18 ± 0.2.

The sequence KSGAIMSALSDTEIQREIGISNAL [PPFIA4] registered a protein stability index under setting [1] of 4.02 ± 0.36 and a protein stability index under setting [2] of 4.13 ± 0.18.

In the case of KSRLSSVSVTYCSVSQDFPGSNLN [ETS2], the protein stability index by setting is: under setting [1], 2.62 ± 0.26; under setting [2], 2.64 ± 0.18.

For KTDFGSCLLQPPSCPNGMSAENGL [DLC1], the protein stability index under setting [1] was 3.94 ± 0.14 and the protein stability index under setting [2] is 3.87 ± 0.19.

KTKWTKEDGHRTSTSAVPNLFVPL [ADD1]: the protein stability index was 3.27 ± 0.26 under setting [1] and 3.22 ± 0.28 under setting [2].

As for KTSLLDQLTNTSGTVIGVTSCIVI [NETO1], the protein stability index stood at 3.14 ± 0.51 under setting [1] and 2.76 ± 0.43 under setting [2].

Consider KVESGAWIGYEHTSFCGQQFILER [CRYBA1], for which the protein stability index by setting is: under setting [1], 2.18 ± 0.26; under setting [2], 2.18 ± 0.19.

In the case of KVLEALKLKGAEVTYMNMTAYNKG [PLD5], the protein stability index amounted to 2.18 ± 0.6 under setting [1] and 2.42 ± 0.39 under setting [2].

For KVLLDCGADPDSRDFDNNTPLHIA [FEM1A], the protein stability index by setting is: under setting [1], 4.02 ± 0.17; under setting [2], 4.07 ± 0.15.

In the case of KVVKSAQHYTETALDEIKLLKCVR [SRPK2], the protein stability index is, setting by setting: under setting [1], 2.72 ± 0.32; under setting [2], 2.68 ± 0.21.

With KVYTHPKWNTQTKARSYSYPHCTG [ZC2HC1C], the protein stability index amounted to 2.73 ± 0.36 under setting [1] and 2.9 ± 0.39 under setting [2].

Regarding KYMPHLCQDSSGEVSCQCQLHPPR, the protein stability index reads like this: under setting [1], 2.76 ± 0.58; under setting [2], 3.6 ± 0.9.

With KYVSKELAKEIRVKAEPFIKWLKE [EIF5], the protein stability index is, setting by setting: under setting [1], 3.08 ± 0.4; under setting [2], 3.07 ± 0.46.

Consider LAEMKDDSDSEKQQQIHHIKNLYA [VPS39], for which the protein stability index is 4.16 ± 0.25 under setting [1] and 4.35 ± 0.44 under setting [2].

For LAHMIAECKKLFQVPEEMSRCRNS [DLC1], the protein stability index reads like this: under setting [1], 2.67 ± 0.34; under setting [2], 2.68 ± 0.34.
